In article doi:10.1101/2025.04.12.648492 (bioRxiv, 2025):

B1: NB-AGT-6, HA-tagged clone from the phage display vector (VHH)
VHH: QVQLVESGGGSVQTGGSLRLACVASGFTSDHYSIGWFRQAPGKEREGVSCIGMHDGSTKYAESVKGRFTISSDNDKNTVYLQMNSLKPEDTAVYYCAAGPLVLLDSDTYQSWGEGTQVTVS
B2: NB-AGT-2 (VHH)
VHH: QVQLVESGGGLVQAGGSLRLSCAASGRTFSSYAMGWFRQAPGKEREFVAAINWSGGSTFYADSVKGRFTISRDNAKNTVYLQMNSLKPEDTAVYYCAAARADPYYSISYYSTTHEYDYWGQGTQVTVS
B3: NB-AGT-3 (VHH)
VHH: QVQLVESGGGLVQAGGSLILSCAASGFTFGHYAIGWFRQAPGKEREGVSCINSNDGSTYYADSVKGRFTISSDNAKNTVYLQMNSLKPEDTAVYYCAADYPPYYCSGYGWPSDGINYWGKGTQVTVS
B4: NB-AGT-4 (VHH)
VHH: QVQLVESGGGLVQSGGSLRLSCVASGGTFSTWSMGWFRQAPGKEREFVAVISWSGTIADYGDSVKGRFTISRDNAKNTVYLQMNSLKPEDTAVYYCAADPVGRVLYSDVGWQYWGQGTQVTVS
B5: NB-AGT-6 (VHH)
VHH: B1 VHH
B6: NB-AGT-2, HA-tagged clone from the phage display vector (VHH)
VHH: B2 VHH
B7: NB-AGT-3, HA-tagged clone from the phage display vector (VHH)
VHH: B3 VHH
B8: NB-AGT-4, HA-tagged clone from the phage display vector (VHH)
VHH: B4 VHH

Tests used:
[1] = biological target: T1, alanine:glyoxylate aminotransferase 1, wild-type (major haplotype) (Homo sapiens, major haplotype, UniProt P21549); assay: ELISA
T1 sequence (P21549 whole entry): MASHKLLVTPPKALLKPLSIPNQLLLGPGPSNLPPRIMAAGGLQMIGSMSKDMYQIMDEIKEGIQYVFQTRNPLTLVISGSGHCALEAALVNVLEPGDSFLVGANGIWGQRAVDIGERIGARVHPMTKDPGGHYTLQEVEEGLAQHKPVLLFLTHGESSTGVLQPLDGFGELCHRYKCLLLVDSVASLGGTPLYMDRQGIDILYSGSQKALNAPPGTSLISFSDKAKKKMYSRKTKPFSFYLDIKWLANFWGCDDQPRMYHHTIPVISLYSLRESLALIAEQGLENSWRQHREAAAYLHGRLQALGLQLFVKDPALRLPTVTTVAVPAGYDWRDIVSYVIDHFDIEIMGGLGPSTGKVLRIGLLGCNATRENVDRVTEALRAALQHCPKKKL

[2] = biological target: T1, alanine:glyoxylate aminotransferase 1, …; assay: SPR

Binder	binding result [1]	binding result [2]
B1	binds	
B2		binds
B3		binds
B4		binds
B5		binds
B6	binds	
B7	binds	
B8	binds	
